Test results reported in PMC8190868.

Experiments:
[1] = target: A. fulgidus humanized ferritin (chimeric ferritin: Archaeoglobus fulgidus ferritin with a grafted surface loop of human H ferritin) (Archaeoglobus fulgidus); assay: negative staining electron microscopy; TEM, HumFt 0.02 mg/mL in HEPES buffer without magnesium ions; 2% uranyl acetate or 4% ammonium molybdate
[2] = target: A. fulgidus humanized ferritin (chimeric ferritin: Archaeoglobus fulgidus ferritin with a grafted surface loop of human H ferritin) (Archaeoglobus fulgidus); assay: negative staining electron microscopy; TEM, HumFt 0.02 mg/mL with 50 mM Mg2+ and/or G4 PAMAM; 2% uranyl acetate or 4% ammonium molybdate
[3] = target: A. fulgidus humanized ferritin (chimeric ferritin: Archaeoglobus fulgidus ferritin with a grafted surface loop of human H ferritin) (Archaeoglobus fulgidus); assay: SEC; HP-SEC of the HumFt-PAMAM nanoparticle after up to 24 h at 37 °C in 20 mM HEPES with 50 mM MgCl2, in PBS, or in RPMI 1640 with 10% FCS
[4] = target: A. fulgidus humanized ferritin (chimeric ferritin: Archaeoglobus fulgidus ferritin with a grafted surface loop of human H ferritin) (Archaeoglobus fulgidus); assay: SEC; HP-SEC, no MgCl2; open HumFt 5 mg/mL (10 uM 24-mer) added to G3, G4 or G5 PAMAM at HumFt:PAMAM 1:10, 1:20, 1:30; mobile phase 20 mM HEPES pH 7.4; UV 220 nm; dimers to 24-mer
[5] = target: A. fulgidus humanized ferritin (chimeric ferritin: Archaeoglobus fulgidus ferritin with a grafted surface loop of human H ferritin) (Archaeoglobus fulgidus); assay: SEC; HP-SEC of the HumFt-G4 PAMAM/FITC nanoparticle; mobile phase 20 mM HEPES pH 7.4 with 50 mM MgCl2; UV 220 nm and fluorescence; dimers to 24-mer
[6] = target: A. fulgidus humanized ferritin (chimeric ferritin: Archaeoglobus fulgidus ferritin with a grafted surface loop of human H ferritin) (Archaeoglobus fulgidus); assay: SEC; HP-SEC of HumFt with divalent cations only (no PAMAM); dimers to 24-mer

stoichiometry N [1]: 2
stoichiometry N [2]: 24
percent 24-mer [3]: > 95%
stoichiometry N [4]: 24
percent dimeric form [5]: < 2%
stoichiometry N [5]: 24
percent dimeric form [6]: 10 to 15%
Substance: A. fulgidus humanized ferritin (chimeric ferritin: Archaeoglobus fulgidus ferritin with a grafted surface loop of human H ferritin)
